In the nanobody polyreactivity screen of Harvey et al. (2022):

Test: yeast display, Sf9 membrane polyspecificity reagent, FACS + sequencing; frameworks hold sequencing errors
Summary of the method: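 After 36–48 hours of galactose induction, yeast (Saccharomyces cerevisiae BJ5465) displaying a synthetic nanobody library were stained at 4 °C for 1 hour with 10% biotinylated, detergent-solubilized Sf9 membrane reagent. Streptavidin microbeads enriched the stained cells before FACS sorting into low and high (top ~1%) gates on anti-HA and streptavidin fluorescence. Each clone's polyreactivity label reflects its gate of origin.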

Row | Sequence | polyreactivity (PSR sort gate)
1 | QVQLVESGGGLVQAGGSLRLSCAASGSISGGYAMGWYRQAPGKERELVAVIDSGGSTYYADSVKGRFTISRDNAKNTVYLQMNSLKPEDTAVYYCNADYSSQDNFDYWGQGTQVTVSS | low polyreactivity
2 | QVQLVESGGGLVQAGGSLRLSCAASGGTFNGNTMGWYRQAPGKERELVAVIDWSGGSTYYADSVKGRFTISRDNAKNTVYLQMNSLKPEDTAVYYCNADSDAQFREPKGLYYWGQGTQVTVSS | low polyreactivity
3 | QVQLVESGGGLVQAGGSLRLSCAASGRTFIKYAMGWYRPAPGKERALVAAISRNGGSTNYADSVKGRFTISRDNAKNTVDLQMNSLKPEDTAVYYCAAVGTVSSTVGYNYWGQGTQVTVSS | high polyreactivity
4 | QVQLQESGGGLVQAGGSLRLICAESGSISQTVYMGWYRQAPGKEREFVAAINAGASTYYADSVKGRFTISRDNAKNTVYLQMNSLKPEDTAVYYCAAEYYSAAYNRYWGQGTQVTVSS | low polyreactivity
5 | QVQLVESGGRLVQAGGSLRLICAASGSICTHNAMGWYRQAPGKERELVADITSSVSSTYYADSVKGRFTISRDNSKNTVDLQMNSLKPEDTSVYYCAGGVGRGMYYWGQGTQVTVSS | low polyreactivity
6 | QVQLVESGGGLVQAGGSLRLSCAPSRFIFGHYAMGWYRQAPGKERELVAGINSSGGSTHYADSVKGRFTISRDNAKNTVYLQMNSLKPEDTAVYYCAADVYRFYAGSRYYYWGQGTQVTVSS | low polyreactivity
7 | QVQLVESGGGLVQAGGSLRLSCAASGNIFRGYTMGWYRQAPGKERELVATITWNGVSTFYADSVKGRFTISRDNAKNTVYLQMNSLIPEETAVYYCPAYYPSHDYSGVWSDTYEYWGQGTQVTVSS | low polyreactivity
8 | QVQLVESGGCLVQAGGSLPLSSAASGSTFSYNDMGSDRQAPGKARELVADINVSVGRTYYADSVKGRFTISRDNAKNTVYLQMNSLKPEDTAVYYCAKDYYRYHYYYCGQGTQVTVSS | low polyreactivity
9 | QVQLVESGAGLVQAGGSLRLSCAASGFIFRQYAMGWYRQAPGQERELVAAISWSGGSTYYADSVKGRFTISRDNAKNTVYLQKNSLKPEDTAVYYCNVLTPPTDYDYWGQGTQVTVSS | high polyreactivity
10 | QVQLVESGGGLVQAGGSLRLSCAASGSIFLGNAMGWYRQAPGKERELVAAITWSGGSTTYADSVKGRFTISRDNAKNTVYLQMNSLKREDTAVYYCNASIYQRYDYWGQGTQVTVSS | low polyreactivity
11 | QVQLVESGGGLVQAGGSLRLSCAASGSTFNYYAMGWYRPAPGKERELVAAICSRSSRTFYADSVKGRFSISRDNEKNTVYLQMNSLKPEDTAVYYCAVKKRAPDGDYWGQGSQVTVSS | high polyreactivity
12 | QVQLVESGGVLVQAGGSLRLSCAASGSTFYGYAMGWYRQAPAKERELVAAITRSGGSTYYADSVKGRFTISRDNAKNTVYLQMNSLKPEDTAVYYCARQDRDTYYHRYYYGGQGTQVTVSS | high polyreactivity
13 | QVQLVESGGGLVQAGGSLRLSCAASGRTFGYNAMGWYRQAPGKERELVAAISRGDSTNYADSVKGRFTISRDNAKNTVYLQMNSLKPEDTAVYYCAAAFPRYRSRAIRVDYWGQGTQVTVSS | high polyreactivity
14 | QVQLVESGGGLVQAGGSLRLSCAASGSIFGRNAMGWSRQAPGNERELVARISYIGGSTYYADSVKARFTISRDNAKTTVYLQMNSLKPEDTAVYYCAKRYGFRYKRMDYWGQGTQVTVSS | low polyreactivity
15 | QVQLVESGGGLVQAGGSLRLSCAASGIIFAWYAMGWYRQAPGKERELVAAINWSGGSTYYADSVKGRFTISRDNAKNTVYLQMNSLKPEDTAVYYCNADFQDRTDDYDYWGQGTQVTVSS | low polyreactivity
16 | QVQLVESGGGLVHAGGSLRLSCAASGSIFTIYAMGWYRQAPGKERELVAAISDRGTRTYYADSVKGRFTISRDNAKNTVYLQMNSLKPEDTAVYYCATDALYTYGYDYWGQGTQVTVSS | low polyreactivity
17 | QVQLVESGGGLVQAGGSLRISCAAYGSTIVTNAMGWYRQAPVKERELVAASTSGAGTYYADSVKGRFTISRDNAKNTVYLQMNCLKTEDTAVYYCAARRYYSSGRYRFGYWGQGSQVTVSS | high polyreactivity
18 | QVQLVESGGGLVQAGGSLRLSCSASGFIFFRYSMGWYIQAPGKERELVAAINSSGDSTYADSVKGRFTISRDNAKNTFYLQMNSLKPEDTAVYYCATGGRTEIWYPTLDYWGQGTQVTVSS | low polyreactivity
19 | QVQLVESGGGLVQAGGSLRLSCAASGLTLKRYAMGWYRQAPGKERELVAAISTRGGSTYYADSVKGRFTISRDNAKNTVYLQMNSLKPEDTAVYYCAAGDYWGQGTQVTVSS | high polyreactivity
20 | QVQLVESGGGLVQAGGSLRLSCAASGRTFTVYAMGWYRQAPGKERELVAAIRRTGSTYYADSVKGRFTISRDNAKNTVYLQMNSLKPEDTAVYYCNAEGSSVLTGYWGYPPYWDTYDYWGQGTQVTVSS | low polyreactivity
21 | QFQIEESGGGLVQAGGSLRLSCAASGNTFYWNAMGWYRQAPGKDRELVAAISTTGVSTYYADSVKGRFTISRDNAKITVYLQMNSLKPEDTAVYYCAAEIIGYHTIYDYWGQGTQVTVSS | low polyreactivity
22 | QVQLVESGGCLVQAGGSLRLSCAASGNTFTSYAMGWYRQAPGKERELVAAISASGSSTYYADSVKGRFTISRDNAKNTVYLQMNSLKPEDTAVYYCNAVKYRVESSYDYWGQGTQVTVSS | low polyreactivity

Row | Sequence | polyreactivity (PSR sort gate)
23 | QVQLVESGGGLVQAGGILSLSCAASGRIFVYYMGWYRQAPGKESELVAAISFGGGSTYYADSVKGRFTISRDNAKNTVYLQMNSLKPEDTAVYYCNADGDDLDWNYYLVQYDSWGQGTQVTVSS | low polyreactivity
24 | QVQLVESGGGLVQAGGSLRISCAASGITFRYYTMGWYRQAPGKERELVAAINYRGGRTYYADSVKGRFTISRDNAKNTVYLQMNSLKPEDTAVYYCNTARVSRLGWSTTSDSWGQGTQVTVSS | high polyreactivity
25 | QVQLVESGGGLVQAGGSLRLSCAASGSTFYPNAMGWYRQAPGKERELVAAISRGTRTKYADSVKGRFTISRDNAKNTVYLQMNSLKPEDTAVYYCAADTGTGLDWGQGTQVNVSS | high polyreactivity
26 | QVQLVESGGGLVQAGGSLRLSCAASGSTFGRYAMGWYRQAPGKEREFVAGITGRGGSTYYADSVKGRFTISRDNAKNTVYLQMNSLKPEDTAVYYCAAGYRVGYLRAGDYWGQGTQVTVSS | high polyreactivity
27 | QVHLVDSGGGLVQAGGSLRLSCAASGRIIDLYAMGCYRQAPGKEWELVAVIDIRDTSTYYADSVKGRFTISRDNAKNTVYLEMNSLKPEDTSVYYCAADYLVYDWYTYGYWGQGTQVTVSS | high polyreactivity
28 | QVQLVESGGGLVQAGGSLRLSCAASGSTFAPYVMGCYRQAPGKQRELVAAIRFNGGRTHYADSVKGRFTISRDNAKNTVYLQMNSLKPEDTAVYYCAAEQWRRRNYWGQGTQVTVSS | high polyreactivity
29 | QVQLVESGGGLVQAGGSLRLSCAASGRTFPAYTMGWYRQAPGKERELVAAISRVGTTYYADSVKGRFTISRDNAKNTGYIQMNSLKPEDTAFYYCNARTWSWSFDYWGQGTLVTVSS | high polyreactivity
30 | QVQLVESGGGLVQAGGSLRLSCAASGRIFDLYAMGWYRQAPGKERELVASITTIGGRTYYADSVKGRFTISRDNAKNTVYLQMNSLKPEDTAVYYCAKSRWLYTTRSGYDYWGQGTQVTVSS | high polyreactivity
31 | QVQLVESGGGLVQAGGSLRLSCAASGITFSGNAMGWYRQAPGKERELVATISQSGGSTYYADSVKGRFTISRDNAKNTVYLQMNSLKPEDTAVYYCNVNLQGRYSDKYDYWGQGTQVTVSS | high polyreactivity
32 | QVQLVESGGGLVQAGGSLRLSCAASGITVRLYAMGWYRQAPGKERELVATIDWSGDSTYYADSVKGRFTISRDNAKNTVYLQMHSLKPEDTAVYYCNAVYVPVGINLGEYDYWGQGTQVTVSS | low polyreactivity
33 | QVQLVESGGGLVQAGGSLRLSCAASGQIFFVYAMGRYRQAPGKESELVAAISFSAGRTYYADSVKGRFTISRDNAKNTVYLQMNSLKPEDTAVYYCNALRQDTGHYPYDYWGQGTQVTVSS | low polyreactivity
34 | QVQLVESGGGLVQAGGSLRVSCAASGLIFYRYAMGWYRQAPGKERELVAAITTRGGSTYYADSVKGRFTISRDNAKITVYLQMNSLKPEDTAVYYCATYFRAKGYTGRYYYWGQGTQVTVSS | high polyreactivity
35 | QVQLVESGGGLVQAGGSLSLSCAASGRIFATNAMGWYRQAPGKERELVATITRSDGRTYYAVSVKGRFTISRDNAMNSVYLEMNSLKPEDTAVYFCAAYYSDTEPGYREYDYWGQGTQVTLSS | low polyreactivity
36 | QVQLVESGRGLVLAGGSLRLSCAASGFIFLEYAMGWYRQAPGKERELVAASSSRGTRTYYADSVKGRFTISRDNAKNTGYLQMNSLKPEDTAVYYCAARSIAPTNLKTYLLDMDYWGQGTQVTVSS | high polyreactivity
37 | QVQLVESGGGLVQEGGSLRLSCAASGSIFNTYAMGRYRQAPGKEREMVAGITKTGSRTYYADSVKGRFTISRDNAKNTVYLQIHILKPEDTAVYYCNARIWPRSYRYDYWGQGTQVTVSS | high polyreactivity
38 | QVQLVESGGGLVQAGGSLRLSCAASGLTFSRYARGWYRQAPGKERELVAAITGSGGNTYYADSVKGRFTISRDNAKNTVYLQMNSLKPEETAVYYCAARDRGDVTRRKGYYWGQGTQVTVSS | high polyreactivity
39 | QDQLVESRGGLVQAGCSLRLSCAASGFIFLHYTMGSYRQAPRKERELVAGITYGHGSTSYADSVKGRFTISRDNAKNTVYLQMNRLKPEDTAVYYCATRYWYRTSYQLYDYWGQGTQVTVSS | low polyreactivity
40 | QVQLVESGGGLVQAGGSLRLSCAASGFIFRYYAMGWYRQAPGNERELVAAISYSGGSTYYADSVKGRFTISRDNAKNTVYLQMNSLKPEDTAVYYGAAVLRTRDHPQPNYEYWGQGTQVTVSS | high polyreactivity
41 | QVQLVESGGGLVQAGGSLRLSCAASGRIFFGYAMGWYRQAPGKERELVASISRGGSTNYADSVKGRFTISRDNAKNTVYLEMNSLKPEDTAVYYCAASRRRWSQQQGYGYYYWGQGTQVTVSS | high polyreactivity
42 | QVQLVESGGGLVQAGGSLRLSCAASGIIFSLYVMGWYRQAPGKERELVAAIRSGGSTYYADSVKGRFTISRDNAKNTVYLQMNSLKPEDTAGDYCAARVRSGTGVGFDYWGQGTQVTVSS | high polyreactivity
43 | QVQLVESGGGLVQAGGSLRLSCAASGRTFRQYAMGWSRQAPGKERELVAGITASGGSTSYADSVKGRFTISRDNAKNTVYLQMNSLKPEDTAVYYCAKLSYLYRYDYWGQGTQVTVSS | high polyreactivity
